The values below come from US20260217833A1 (APTEVO RESEARCH AND DEVELOPMENT, published 2026).

Changes are numbered by the printed parent chain.

Sequences and labels used below:
T1: Cynomolgus CHOK1SV/CD40
T1 construct: also called Cyno CD40 full-length; CD4001013
T1 receptor chain: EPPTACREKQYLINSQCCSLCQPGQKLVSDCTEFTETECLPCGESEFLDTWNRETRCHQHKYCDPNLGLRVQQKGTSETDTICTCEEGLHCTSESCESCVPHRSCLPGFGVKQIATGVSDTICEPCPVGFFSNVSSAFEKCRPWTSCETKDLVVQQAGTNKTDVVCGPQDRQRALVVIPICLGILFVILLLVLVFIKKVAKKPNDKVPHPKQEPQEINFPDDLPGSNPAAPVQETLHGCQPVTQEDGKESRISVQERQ

B1: PC401119 (bispecific antibody)
chain: DIQMTQSPSSLSASVGDRVTITCRASQDINKFLSWYQQKPGKAPKLLIHYTSSLQSGVPSRFSGSGSGTDFTLTISSLQPEDFATYYCLQYDNLYTFGQGTKLEIKGGGGSGGGGSGGGGSGGGGSEVQLVESGGGLVQPGGSLRLSCAASGFTFSDYGMAWVRQAPGKGLEWVSFITSLAYIIYYADSVKGRFTISRDNAKNSLYLQMNSLRAEDTAVYYCARNYGSSPYYFDYWGQGTLVTVSSEPKSSDKTHTCPPCPAPPAAAPSVFLFPPKPKDTLMISRTPEVTCVVVDVSHEDPEVKFNWYVDGVEVHNAKTKPREEQYNSTYRVVSVLTVLHQDWLNGKEYKCAVSNKALPAPIEKTISKAKGQPREPQVYTLPPSRDELTKNQVSLTCLVKGFYPSDIAVEWESNGQPENNYKTTPPVLDSDGSFFLYSKLTVDKSRWQQGNVFSCSVMHEALHNHYTQKSLSLSPGGGGSPSDIQMTQSPSSVSASVGDRVTITCRASQSLLFSVNQKNYLAWYQQKPGKAPKLLIYWASSLQSGVPSRFSGSGSGTDFTLTISSLQPEDFATYYCQHYYSYPWTFGQGTKVEIKGGGGSGGGGSGGGGSGGGGSQVQLVQSGAEVKKPGSSVKVSCKASGYTFSTSWIEWIRQAPGQGLEWMGSILPGSGSTNYNQKFQGRVTITADTSTSTAYMELSSLRSEDTAVYYCARGDDGSYVRWYFDHWGQGTLVTVSS
notes: also called H-Ala60Asn
B2: PC401120 (bispecific antibody)
chain: B1 chain with Q588C, G659C, N676A
notes: also called L-Gln100Cys + H-Gly44Cys
B3: PC401122 (bispecific antibody)
chain: B1 chain with N676A, V720N
notes: also called H-Val100aAsn
B4: PC401003 (bispecific antibody)
chain: B1 chain with N676A
notes: also called Parent; DDG (Original)
B5: CD4001090 (Fc fusion)
chain: EVVMTQSPDFQSVTPKEKVTITCRSSQSLVHYNGYTYLHWYQQKPDQSPKLLIYKVSNRFSGVPSRFSGSGSGTDFTLTINSLEAEDAAAYFCSQTTHVPLTFGPGTKVDIKGGGGSGGGGSGGGGSGGGGSEVQLVESGGGVVQPGRSLRLSCAASGFTFSSYAMSWVRQAPGKGLEWVASISSAGTYIYYADSVKGRFTISRDNSKNTLYLQMNGLRAEDTAVYYCARHGNGYDPLWYFDVWGQGTLVTVSS
notes: As m65; not shown: wildtype IgG1 Fc region
B6: CD4001099 (Fc fusion)
chain: B5 chain with V143L, V144E, R148G, G217S, L249T
notes: as for B5
B7: CD4001088 (Fc fusion)
chain: B5 chain with V143L, K197Q, S207G, T210S, G217S, V225L, L249M
notes: as for B5

The first assay addresses T2, human CD40 full-length (human, UniProt P25942 21-277).
T2 construct: Also used for CD40 of Daudi cells, of CD40-expressing HEK293 cells and of the BPS CD40/NFkB HEK293 reporter cells where the row says so; also called CD4001012; CHOK1SV/CD40
Nature of the assay: flow cytometry, CHOK1SV/human CD40 cells.
For B1, the binding result is given as “binds”.

Consider B2, for which the binding result is reported as “binds”.

Consider B3, for which the binding result is reported as “binds”.

The target of a further assay is T3, Human PD-L1 full-length (human, UniProt Q9NZQ7 19-290).
T3 construct: also called PDL01021; CHOK1SV/huPDL1
T3 sequence (Q9NZQ7 19-290): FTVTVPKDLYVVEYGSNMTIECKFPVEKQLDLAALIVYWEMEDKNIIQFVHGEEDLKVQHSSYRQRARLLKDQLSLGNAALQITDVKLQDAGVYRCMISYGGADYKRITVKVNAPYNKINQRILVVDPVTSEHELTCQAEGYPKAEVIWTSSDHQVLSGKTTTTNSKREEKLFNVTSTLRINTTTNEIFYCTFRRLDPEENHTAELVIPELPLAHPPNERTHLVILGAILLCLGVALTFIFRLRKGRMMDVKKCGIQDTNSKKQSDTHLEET
The assay can be described thus: flow cytometry, CHOK1SV/human PD-L1 cells.
B4: the “EC50 (read off the curve)” value is about 3 nM.

Turning to B1, the “EC50 (read off the curve)” value was about 5 nM.

Take B2: the “EC50 (read off the curve)” value was about 3 nM.

Regarding B3, the “EC50 (read off the curve)” value was about 3 nM.

The target of the next assay is T3, Human PD-L1 full-length. The assay can be described thus: flow cytometry, CHOK1SV/human PD-L1 cells. This is another data set of the same source.
With B4, the “EC50 (read off the curve)” value is about 3 nM.

Another assay has as its target T1, Cynomolgus CHOK1SV/CD40. The assay can be described thus: flow cytometry, CHOK1SV/cynomolgus CD40 cells.
B4: the binding result is on record as “binds”.

Consider B1, for which the binding result is “binds”.

B2: the binding result is recorded as “binds”.

On to B3, for which the binding result is “binds”.

The target in the next assay is T4, human neonatal Fc receptor (FcRn, complexed with beta-2-macroglobulin) (human, UniProt P55899 24-297; P61769 21-119).
T4 construct: also called Human FcRn/b2m
T4 sequence (P55899 24-297 limits assumed, chain 1 of 2): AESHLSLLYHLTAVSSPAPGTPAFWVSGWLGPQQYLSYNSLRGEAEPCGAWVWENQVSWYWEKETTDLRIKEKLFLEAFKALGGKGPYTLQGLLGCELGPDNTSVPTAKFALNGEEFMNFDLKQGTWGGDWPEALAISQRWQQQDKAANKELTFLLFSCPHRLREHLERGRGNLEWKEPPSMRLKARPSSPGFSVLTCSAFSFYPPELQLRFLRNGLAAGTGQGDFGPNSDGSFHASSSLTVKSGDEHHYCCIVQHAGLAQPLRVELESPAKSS
T4 sequence (P61769 21-119 limits assumed, chain 2 of 2): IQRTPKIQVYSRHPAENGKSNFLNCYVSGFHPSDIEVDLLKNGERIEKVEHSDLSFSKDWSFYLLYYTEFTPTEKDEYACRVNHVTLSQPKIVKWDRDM
Nature of the assay: SPR, FcRn/b2m immobilized, bispecific injected, pH 6.0, two-state reaction fit.
The molecule B4 displayed a Kd of 121 nM.

B1 displayed a dissociation constant (Kd) of 122 nM.

B2 showed a dissociation constant Kd of 146 nM.

As to B3, the Kd was 134 nM.

The next assay has as its target T5, human CD40 ECD- HAC tag (human).
T5 construct: also called CD4001006; recombinant monomeric human CD40 ectodomain (ECD)
Nature of the assay: SPR (Biacore T200), bispecific captured on the chip, monovalent CD40 ECD injected.
Consider B1, for which the Kd was 57 nM, the koff is 0.0004 s⁻¹ and the association rate constant (kon) is 7000 M⁻¹ s⁻¹.

As to B2, binding was characterised by a dissociation constant (Kd) of 74 nM, the koff turned out to be 0.00054 s⁻¹ and the association rate constant (kon) was 7200 M⁻¹ s⁻¹.

B3: binding was characterised by a dissociation constant (Kd) of 69 nM, the koff was 0.0006 s⁻¹ and the kon came to 8700 M⁻¹ s⁻¹.

In another assay the target is T2, human CD40 full-length. Nature of the assay: binding to cells expressing full length human- or cyno-CD40, unpurified small-scale material.
As to B5, the binding result is given as “binds”.

On to B6, for which the binding result is reported as “binds”.

B7: the binding result is given as “binds”.
